Publication PMC8809517, “Cofactor-independent RNA editing by a synthetic S-type PPR protein”
Substitutions are numbered along the chain they refer to.

T1: GFP-9S library array, motif 4 ND N98T;D124K (synthetic construct, N98T;D124K)
T1 chain: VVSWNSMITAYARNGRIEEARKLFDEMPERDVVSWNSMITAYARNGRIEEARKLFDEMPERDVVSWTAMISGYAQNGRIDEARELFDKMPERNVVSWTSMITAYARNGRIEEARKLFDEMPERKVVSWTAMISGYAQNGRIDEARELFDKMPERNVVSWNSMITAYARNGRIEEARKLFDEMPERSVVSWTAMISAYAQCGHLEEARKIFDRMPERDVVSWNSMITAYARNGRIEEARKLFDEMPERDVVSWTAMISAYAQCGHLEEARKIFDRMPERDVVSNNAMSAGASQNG

T2: GFP-9S library array, motif 4 ND N98R;D124G (synthetic construct, N98R;D124G)
T2 chain: T1 chain with T98R, K124G

T3: GFP-9S library array, motif 4 ND N98S;D124E (synthetic construct, N98S;D124E)
T3 chain: T1 chain with T98S, K124E

T4: GFP-9S library array, motif 4 ND N98K;D124Q (synthetic construct, N98K;D124Q)
T4 chain: T1 chain with T98K, K124Q

T5: GFP-9S library array, motif 4 ND N98L;D124M (synthetic construct, N98L;D124M)
T5 chain: T1 chain with T98L, K124M


What was measured:
Experiment in all cases: high-throughput RNA pulldown from lysate on Ni-NTA beads; HRP: 50 mM Tris pH 8, 150 mM NaCl, 1 mM beta-mercaptoethanol, 50 ug/ml BSA, 3 ug/ml yeast RNA, 0.5% heparin; ITC and FP: Tris pH 8, 200 mM KCl, 5% glycerol; MST: 50 mM Tris pH 8, 200 mM NaCl, 1 mM DTT, BSA, heparin, 0.05% Tween 20
Conditions in all cases: tags: N-terminal His-eGFP
[1] = molecular target: T1, GFP-9S library array, motif 4 ND …
[2] = molecular target: T2, GFP-9S library array, motif 4 ND …
[3] = molecular target: T3, GFP-9S library array, motif 4 ND …
[4] = molecular target: T4, GFP-9S library array, motif 4 ND …
[5] = molecular target: T5, GFP-9S library array, motif 4 ND …

Binder | Kd ([1]; label: 5' Cy5) | Kd ([2]; label: 5' Cy5) | Kd ([3]; label: 5' Cy5) | Kd ([4]; label: 5' Cy5) | Kd ([5]; label: 5' Cy5) | Kd ([1]; label: 5' IRDye 800CW) | Kd ([2]; label: 5' IRDye 800CW) | Kd ([3]; label: 5' IRDye 800CW) | Kd ([4]; label: 5' IRDye 800CW) | Kd ([5]; label: 5' IRDye 800CW)
AUUAGACGUGA (ssRNA) [Cy5-rpoA-G] | 131 nM | 102 nM | 122 nM | 81.3 nM | 122 nM | – | – | – | – | –
AUUACACGUGA (ssRNA) [Cy5-rpoA] | 131 nM | 74.7 nM | 276 nM | 71.3 nM | 104 nM | – | – | – | – | –
AUUAAACGUGA (ssRNA) [IR-rpoA-A] | – | – | – | – | – | 53.4 nM | 191 nM | 70.5 nM | 110 nM | 381 nM
AUUAUACGUGA (ssRNA) [IR-rpoA-U] | – | – | – | – | – | 81.9 nM | 97.3 nM | 201 nM | 63.7 nM | 176 nM
